Measurements published in patent publication US20140212976.

System: T1, bifurcating NADP Fe-only hydrogenase of C. autoethanogenum
T1 sequence: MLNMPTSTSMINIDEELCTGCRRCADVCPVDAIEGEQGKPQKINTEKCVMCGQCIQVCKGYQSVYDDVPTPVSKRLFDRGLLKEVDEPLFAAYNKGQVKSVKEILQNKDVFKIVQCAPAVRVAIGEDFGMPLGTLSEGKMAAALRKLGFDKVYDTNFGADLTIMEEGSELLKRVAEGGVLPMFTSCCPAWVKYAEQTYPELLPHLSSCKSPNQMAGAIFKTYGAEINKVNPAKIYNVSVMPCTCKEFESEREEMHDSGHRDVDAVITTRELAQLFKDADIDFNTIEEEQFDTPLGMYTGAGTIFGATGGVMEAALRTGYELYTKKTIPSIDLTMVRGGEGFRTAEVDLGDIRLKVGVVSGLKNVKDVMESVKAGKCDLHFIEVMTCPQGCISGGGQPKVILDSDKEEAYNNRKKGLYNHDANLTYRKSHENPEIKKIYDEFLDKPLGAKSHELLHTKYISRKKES

In the case of “bifurcating NADP formate dehydrogenase of C. autoethanogenum”, the “Formate-hydrogen lyase activity (using H2)” value is reported as “a high activity of 2.4 U/mg was detected”.
